Experimental data reported in publication PMC6776071 (2019).
Bridge positions count the residues as written; N and C are the ends.

B1: M-Hir (M-hirudin-HN-His tag) (natural protein)
chain: MNRYSVCTETGQNLCLCEGSDLCSLDNHCEIGSNGKNRCVKGEGKPKKPQSNSDLPEEKYEPIPIEDYDK
modifications: disulfide 7-15, 17-29, 23-39
B2: mature hirudin-HN protein (Hir) (natural protein)
chain: NRYSVCTETGQNLCLCEGSDLCSLDNHCEIGSNGKNRCVKGEGKPKKPQSNSDLPEEKYEPIPIEDYDK

Biological target: thrombin (bovine alpha-thrombin) (bovine)
Assay: SPR

Row | Binder | Kd [nM]
1 | B1 | 2970
2 | B2 | 64.7
